According to article PMC3564530 (Molecular Biology of the Cell, 2013):

Target: recombinant his6-tagged linear penta-Ub (Ub5) (UniProt P0CG48)
Assay: pull-down

recombinant his6-tagged linear penta-Ub (Ub5), sequence (P0CG48 1-380): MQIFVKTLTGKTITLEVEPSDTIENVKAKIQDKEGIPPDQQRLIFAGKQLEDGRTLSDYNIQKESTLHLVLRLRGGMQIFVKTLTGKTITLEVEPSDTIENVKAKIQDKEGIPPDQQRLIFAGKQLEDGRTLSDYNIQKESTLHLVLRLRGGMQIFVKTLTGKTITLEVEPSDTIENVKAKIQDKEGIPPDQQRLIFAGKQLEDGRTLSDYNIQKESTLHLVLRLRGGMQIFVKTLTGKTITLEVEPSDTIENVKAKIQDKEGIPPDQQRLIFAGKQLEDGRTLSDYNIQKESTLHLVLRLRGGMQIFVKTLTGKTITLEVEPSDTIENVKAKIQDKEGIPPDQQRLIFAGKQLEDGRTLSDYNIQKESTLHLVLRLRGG

binding result: binds
B1: recombinant purified GST-CIN exon 2 (domain or fragment)
chain: TGSLAAAVETASGRQALVVGKPSPYMFECITENFSIDPARTLMVGDRLETDILFGHRCGMTTVLTLTGVSRLEEAQAYLAAGQHDLVPHYYVESIADLTEGLED
